Drawing on patent US7235627B2 (Novo Nordisk A/S, priority 1996, dated 2007), this text covers EC50 and EC50, pM (stimulation of cAMP formation) for four compounds.

For test [1], the target named is T1, cloned human GLP-1 receptor (Homo sapiens, UniProt P43220). Briefly: biochemical.
The target in test [2] is T1, cloned human GLP-1 receptor. Kind of test: cell-based or functional assay.

T1 sequence (P43220 24-463): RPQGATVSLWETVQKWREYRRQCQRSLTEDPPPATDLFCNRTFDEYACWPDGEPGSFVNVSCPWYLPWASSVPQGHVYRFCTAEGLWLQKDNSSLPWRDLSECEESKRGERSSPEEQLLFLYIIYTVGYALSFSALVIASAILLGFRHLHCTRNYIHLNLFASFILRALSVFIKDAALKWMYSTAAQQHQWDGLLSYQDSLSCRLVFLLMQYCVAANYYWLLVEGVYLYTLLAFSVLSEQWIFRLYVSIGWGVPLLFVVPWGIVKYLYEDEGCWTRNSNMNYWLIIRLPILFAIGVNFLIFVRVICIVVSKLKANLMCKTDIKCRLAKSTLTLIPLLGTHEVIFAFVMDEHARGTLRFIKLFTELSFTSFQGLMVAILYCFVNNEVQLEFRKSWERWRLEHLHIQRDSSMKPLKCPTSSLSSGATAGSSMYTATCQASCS

The term EC50 denotes the concentration needed to bring the measured effect to its halfway point. A lower EC50 goes with a more potent agent. Regarding `CC[C@H](C)[C@H](NC(=O)[C@H](Cc1ccccc1)NC(=O)[C@H](CCC(=O)O)NC(=O)[C@H](CCCNC(=N)N)NC(=O)[C@H](C)NC(=O)[C@H](C)NC(=O)[C@H](CCC(N)=O)NC(=O)CNC(=O)[C@H](CCC(=O)O)NC(=O)[C@H](CC(C)C)NC(=O)[C@H](Cc1ccc(O)cc1)NC(=O)[C@H](CO)NC(=O)[C@H](CO)NC(=O)[C@@H](NC(=O)[C@H](CC(=O)O)NC(=O)[C@H](CO)NC(=O)[C@@H](NC(=O)[C@H](Cc1ccccc1)NC(=O)[C@@H](NC(=O)CNC(=O)[C@H](CCC(=O)O)NC(=O)[C@H](C)NC(=O)[C@@H](N)Cc1c[nH]cn1)[C@@H](C)O)[C@@H](C)O)C(C)C)C(=O)N[C@@H](C)C(=O)N[C@@H](Cc1c[nH]c2ccccc12)C(=O)N[C@@H](CC(C)C)C(=O)N[C@H](C(=O)N[C@@H](CCCNC(=N)N)C(=O)NCC(=O)N[C@@H](CCCNC(=N)N)C(=O)NCC(=O)N[C@@H](CCCCNC(=O)CCCCCCCCCCC(=O)O)C(=O)O)C(C)C` [Example 16, Arg^26,34Lys^38(N^ε-(ω-carboxyundecanoyl))-GLP-1(7–38)-OH], a half-maximal response in test [1] (EC50) required 3.5 pM.

The compound “Arg^26,34Lys^36(N^ε-(ω-carboxyheptanoyl))-GLP-1(7-36)-OH (peptide)” displayed an EC50, pM (stimulation of cAMP formation) in test [2] of 8.8 pM.

In test [2], “Arg^26,34Lys^38(N^ε-(ω-carboxyundecanoyl))-GLP-1(7-38)-OH (peptide)” yielded an EC50, pM (stimulation of cAMP formation) of 3.5 pM.

In test [2], “Arg^34Lys^26(N^ε-(γ-glutamyl(N^α-hexadecanoyl)))-GLP-1(7-37)-OH (peptide)” returned an EC50, pM (stimulation of cAMP formation) of 60 pM.
